Here are results for three molecules from publication PMC11585782, “The Plastidial Protein Acetyltransferase GNAT1 Forms a Complex With GNAT2, yet Their Interaction Is Dispensable for State Transitions” (Molecular & Cellular Proteomics : MCP, 2024).

Substrate in data set [1]: CC(=O)SCCNC(=O)CCNC(=O)[C@H](O)C(C)(C)COP(=O)(O)OP(=O)(O)OC[C@H]1O[C@@H](n2cnc3c(N)ncnc32)[C@H](O)[C@@H]1OP(=O)(O)O
As to the kind of experiment: purified protein. The class given is biochemical, Arabidopsis thaliana. The note with it: acetyl-CoA 0-500 µM, 150 mM K-phosphate pH 8.0, 50 mM NaCl, 30 °C.

Data set [2] has as its target His6-GNAT2 (Arabidopsis thaliana) (UniProt Q7X9V3).
Data set [3] has the same target. The source holds these as a separate data set.
Where [4] appears, read: co-substrate Nα-Val peptide V-A-Q-G-A-K(ac)-A-A-K(Dnp)-Ahx-r-r-r 100 µM.
Where [5] appears, read: co-substrate Nα-Ala peptide A-A-Q-G-A-K(ac)-A-A-K(Dnp)-Ahx-r-r-r 100 µM.

B1: His6-GNAT2 (Arabidopsis thaliana) (protein)
chain: SGFVKNNNSTQLVEPPSIVNDEEEETEPLLPVEFTLVERNLEDGLVEEIIFSSGGEIDVYDLQGLCDKVGWPRRPLVKLAAALKNSYMVATLHSVMKSSSDSDSSEGGDGEKQQEKKLIGMARATSDHAFNATIWDVLVDPEYQGQGLGKALVEKLVRALLQRDIGNISLFADSQVVDFYQNLGFEADPEGIKGMFWYPK
notes: expressed in E. coli, purified
As to B1, in data set [1] (setting [4]), the Km (commonly the substrate concentration at which the rate is half of its maximum) is reported as 23.44 ± 0.32 µM; the kcat (as a rule, the number of substrate molecules converted per active site and unit of time at saturation) is 0.02335 ± 5e-05 s⁻¹.

B2: His6-GNAT1 (enzyme)
chain: AAMQRKPPSYSISDEDLESRGFLLRRTTEGLNLDQLNSVFAAVGFPRRDTAKIEVALQHTDALLWVEYEKTRRPVAFARATGDGVFNAIIWDVVVDPSFQSCGLGKAVMERLIEDLQVKGICNIALYSEPRVLGFYRPLGFVSDPDGIKGMVFIRKQRNKK
With B2, in data set [2], the acetylation of the Nα-Met peptide by His6-GNAT1 + His6-GNAT2 (1 + 1 μM), effective activity as percent of the hypothetical sum of the single activities is 55%; the acetylation of the Nα-Thr peptide by His6-GNAT1 + His6-GNAT2 (1 + 1 μM), effective activity as percent of the hypothetical sum of the single activities is 73%; the acetylation of the Nα-Val peptide by His6-GNAT1 + His6-GNAT2 (1 + 1 μM), effective activity as percent of the hypothetical sum of the single activities is 76%; the acetylation rate of the Nα-Ala peptide by His6-GNAT1 + His6-GNAT2 (1 + 1 μM), against around 450 nmol ∙ min^-1 expected for additive activity came to 250 nmol/min. Also, the lysine acetylation of the Nε-Lys peptide by His6-GNAT1 + His6-GNAT2 (1 + 1 μM), effective activity as percent of the hypothetical sum of the single activities in data set [2] was found to be 93%. For the same molecule, the acetylation of the Nα-Ala peptide in the presence of both GNATs, turnover as percent of the hypothetical sum of both individual activities in data set [3] worked out at 53%.

B3: His6-GNAT1 (Arabidopsis thaliana) (protein)
chain: B2 chain
notes: N-terminal His6 (pQE-30), predicted plastid transit peptide (36 N-terminal residues) removed; expressed in E. coli SoluBL21, Ni-NTA
As to B3, in data set [1] (setting [5]), the Km is given as 137.6 ± 9.8 µM and the kcat is 0.00858 ± 0.00025 s⁻¹.
